Measurements as given in patent US20180236053A1 (CELLECTIS, published 2018).

How the values were obtained:
[1] = target: T1, CD38-Fc protein (produced by LakePharma) (UniProt P28907 43-300, limits assumed); assay: flow cytometry, CD38-Fc fusion protein staining of purified CD38-deficient T cells transfected with CAR mRNA (FIG. 15)
T1 construct: Staining reagent for CAR detection by flow cytometry; also called CD38-Fc fusion protein; not shown: Fc part
Method: T cells were purified from buffy coat samples and activated using anti-CD3/CD28 coated beads and IL-2. CD38-1 TALEN mRNA was transfected in T cells at day 4 after activation, 6 days later CD38 negative cells were purified by using magnetic separation (Miltenyi). The day after, CAR mRNAs were transfected. The CAR expression and degranulation capacity of CART cells were assessed 24 hours after the transfection. CAR expression and cytotoxic capacity of CART cells were assessed 48 hours after the transfection.
All CARs were detected 24 h after transfection except the 25A10-V3 However, the latter expressed anti-CD38 CAR above the background. The 13F11-V2, 25A10-V1, 25A10-V2 and 28F5-V2 were highly expressed (more than 80%).

[2] = target: CD38 antigen on the surface of cells (U266 CD38+, MOLP8, Daudi, T-ALL cell lines, activated T cells) (human, UniProt P28907 1-300); assay: cell-based or functional assay
[3] = target: T1, CD38-Fc protein (produced by LakePharma); assay: flow cytometry, CD38 Fc staining of CD38/TRAC double KO T cells transduced with rLV (FIG. 27C)
Method: The parameters are the following: T cells were activated by using Dynabeads CD3-CD28, the culture were made by using medium Xvivo+5% human serum heat inactivated+IL-2 20 ng/ml, a double KO (DKO) CD38-TRAC was performed by using a ratio of 2 μg TALEN mRNA per million of cells (5 million cells/cuvette); the transduction was performed by using rLV from Vectalys(France) at a MOI of 5.
The screening of the 4 CARs 25A10-v1, -v2, 28F5-v1 and -v2 after rLV transduction in DKO T cells has shown that all the CARs were expressed at the T cell surface with a high efficiency (>40%) and 3 of them above 80% (FIG. 27C). RQR8 expression was correlated with CAR expression (FIG. 27A). Most of the T cells were CD38 negative when T cells have been transduced by CD38 CARs (FIG. 27A). It is shown also that 60-85% of T cells endowed with the above 4 CARs were DKO TRAC/CD38 (FIG. 27B).

B1: 28F5-V2 CAR (other)
chain: QIQLVQSGPELKKPGETVKISCKASGYTFTKYGMNWVKQTPGKGLKWMGWINTNSGEPTYAEEFKGRFAFSLETSASTAYLQINNLKNEDTATYFCARGAYYRYDGEVSYYAMDYWGQGTSVTVSSGGGGSGGGGSGGGGSQIILTQSPAIMSASLGERVTMTCTATSSLSSSYLHWYQQKPGSSPKLWIYSTSHLASGVPARFSGGGSGTSYSLTISSMEAEDAATYYCHQYHLSPYTFGGGTKLEIKTTTPAPRPPTPAPTIASQPLSLRPEACRPAAGGAVHTRGLDFACDIYIWAPLAGTCGVLLLSLVITLYCKRGRKKLLYIFKQPFMRPVQTTQEEDGCSCRFPEEEEGGCELRVKFSRSADAPAYQQGQNQLYNELNLGRREEYDVLDKRRGRDPEMGGKPRRKNPQEGLYNELQKDKMAEAYSEIGMKGERRRGKGHDGLYQGLSTATKDTYDALHMQALPPR
notes: Chimeric antigen receptor on T cells; signal peptide left out here
- % of T cells stained by CD38-Fc (CAR expression) [1]: > 80%
- ratio of degranulation against U266 CD38+ and U266 CD38- [2]: > 2 ratio
- % of T cells stained by CD38-Fc (CAR expression) [3]: > 40%
